Measurements: paper PMC9775377, “The High-Resolution Structure Reveals Remarkable Similarity in PD-1 Binding of Cemiplimab and Dostarlimab, the FDA-Approved Antibodies for Cancer Immunotherapy” (Biomedicines, 2022)

Target: T1, extracellular domain of human PD-1 (aa 26-150) (human, UniProt Q15116)
T1 construct: Programmed cell death-1 (PD-1), human, extracellular domain, aa 26-150; any point mutation of the construct would be told there or in PDB 8GY5; also called Programmed cell death-1; ectodomain of PD-1
T1 sequence (Q15116 26-150): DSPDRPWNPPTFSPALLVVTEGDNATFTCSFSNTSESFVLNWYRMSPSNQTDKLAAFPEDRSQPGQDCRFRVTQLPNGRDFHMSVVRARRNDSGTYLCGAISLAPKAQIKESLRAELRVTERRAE
Test: crystal structure; Fab mixed with PD-1 at a molar ratio of 1:1.2, complex purified by gel filtration (20 mM Tris pH 7.5, 200 mM NaCl); hanging-drop vapor diffusion, 0.1 M sodium HEPES pH 7.5, 5% PEG 3350, 20 °C; 1.98 Å, two copies of the complex in the asymmetric unit
Conditions: both partners purified

- binding result: binds
B1: cemiplimab Fab (Fab, V domains shown)
VH: EVQLLESGGVLVQPGGSLRLSCAASGFTFSNFGMTWVRQAPGKGLEWVSGISGGGRDTYFADSVKGRFTISRDNSKNTLYLQMNSLKGEDTAVYYCVKWGNIYFDYWGQGTLVTVSS
VL: DIQMTQSPSSLSASVGDSITITCRASLSINTFLNWYQQKPGKAPNLLIYAASSLHGGVPSRFSGSGSGTDFTLTIRTLQPEDFATYYCQQSSNTPFTFGPGTVVDFR
notes: heavy chain of the cemiplimab Fab; in PDB 8GY5 (deposited here); light chain (kappa) of the cemiplimab Fab; Cemiplimab is a fully human IgG4 (S228P) kappa antibody; also called Fab fragment of cemiplimab; LIBTAYO
